Data from publication doi:10.1101/2022.10.27.514035, “Membrane curvature-generating proteins crucial for autophagosome formation” (bioRxiv, 2022).

Target: T1, S. cerevisiae Atg40, SBP-tagged (S. cerevisiae, UniProt Q99325 1-256)
T1 construct: Atg40, ERphagy receptor of Saccharomyces cerevisiae; 'SBP-tagged full-length sjRop1, scAtg40': full-length is read as holding for both; also called scAtg40; not shown: SBP, C-terminal, kept
T1 sequence (looked up): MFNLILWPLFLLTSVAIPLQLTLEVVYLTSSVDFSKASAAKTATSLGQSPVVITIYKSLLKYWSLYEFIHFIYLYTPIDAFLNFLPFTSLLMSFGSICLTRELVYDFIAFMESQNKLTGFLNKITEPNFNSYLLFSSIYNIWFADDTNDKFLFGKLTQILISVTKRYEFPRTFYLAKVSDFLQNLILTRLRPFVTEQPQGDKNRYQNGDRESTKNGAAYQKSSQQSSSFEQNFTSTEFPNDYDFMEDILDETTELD
Assay: pull-down; SBP-tagged protein held on streptavidin beads, incubated with purified Atg8 for 1 h at 4 °C in 25 mM HEPES/KOH pH 7.4, 150 mM NaCl, 0.05% DDM; eluate on SDS-PAGE, Coomassie blue
Conditions: both partners purified

binding result: binds
B1: S. cerevisiae Atg8, His10-tagged (natural protein, UniProt P38182 1-117, looked up)
chain: MKSTFKSEYPFEKRKAESERIADRFKNRIPVICEKAEKSDIPEIDKRKYLVPADLTVGQFVYVIRKRIMLPPEKAIFIFVNDTLPPTAALMSAIYQEHKDKDGFLYVTYSGENTFGR
notes: Atg8, ubiquitin-like autophagy protein of Saccharomyces cerevisiae; also called scAtg8; source: E. coli, purified (Ni-NTA, SEC on Superdex 75)
